Data published in the supplement of paper PMC10126150.
± gives the standard deviation of the averaged measurements.

test system: ATP; test: switch fluorescence ratio, 500 uM ATP over buffer (Cy3 cluster intensity, sum of 5 cycles each) (fold (ratio)); higher = stronger signal-on switching upon ATP binding; sequences stand for … in TCGTCGGCAGCGTCAGATGTGTATAAGAGACAGTTTTTTTTTTTTTTTTTTTTTTTTT…TC; settings: aptamer strand: ATP DNA aptamer (quencher-CACCTGGGGGAGTATTGCGGAGGAAGG + anchor), 100 nM annealed; ATP concentration: 500 uM
In short: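 Cy3-labelled switching-strand clusters on a modified Illumina MiSeq flow-cell were annealed to 100 nM quencher-labelled ATP aptamer and imaged first in selection buffer, then after 15 min with 500 uM ATP at 22 °C. NaOH stripping and re-annealing separated each of five buffer/ATP cycles, and clusters outside 100-1000 RFU were excluded. The fluorescence ratio sums target-cycle Cy3 intensity over buffer-cycle Cy3 intensity per cluster and averages it per switch-domain sequence.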
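Note: ATP exposure 15 min at 22 °C before imaging.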

Sequence | switch fluorescence ratio
CGAGAGGAGG | 1.01 ± 0.02
CTTCTTCAGC | 1.44 ± 0.061
GGGTTGGGCC | 0.989 ± 0.014
TTTTTTCGTT | 0.988 ± 0.022
TTGGGGTTTT | 1.01 ± 0.037
GGGTGTAAGG | 0.998 ± 0.022
TGCAAACCTA | 1.0241 ± 0.00058
GGGTGCCCAT | 1.03 ± 0.021
GGGGCTGTCT | 1 ± 0.071
TTTATGGTTC | 0.992 ± 0.01
CGCCGTCTGG | 1.03 ± 0.0039
AGCTAGTCGC | 1.01 ± 0.027
ATTTCCATGT | 0.978 ± 0.011
CAGCGAGTGG | 1 ± 0.036
TTGTCTATGA | 0.986 ± 0.028
CGGAATGTGT | 1 ± 0.015
CTCAGAAACA | 1.02 ± 0.013
TAATTTGGCT | 1.01 ± 0.035
TTTTTTTGGT | 0.996 ± 0.028
GTGTTTAAGT | 0.962 ± 0.014
TTTGACAGGG | 1.02 ± 0.014
TCTGGTGTGG | 0.994 ± 0.053

Sequence | switch fluorescence ratio
GGTGCGGGGG | 0.987 ± 0.093
TTGTTTGTGA | 0.992 ± 0.011
CGGTTAGGAT | 0.994 ± 0.0078
TGGTTTCCGT | 0.991 ± 0.027
GGTGTTCTGC | 0.995 ± 0.081
CTATAATAGG | 0.961 ± 0.01
GGGACGGGGT | 0.963 ± 0.063
CGTTGTTCGA | 1.02 ± 0.012
TGGGTTGGTA | 1.02 ± 0.02
CCCCTGGATA | 1.03 ± 0.043
AGTCTGAAGA | 0.987 ± 0.036
GTTAGTTAGG | 0.976 ± 0.025
TAGGGCATCA | 0.987 ± 0.042
GGTACTGGAG | 1.04 ± 0.034
TCTTTCTTTT | 1.03 ± 0.027
GCAGAGGTGG | 1.05 ± 0.037
GTGGAGAGGG | 0.993 ± 0.038
CGGGTTGCAT | 1.023 ± 0.0087
GGGGGGACAA | 1 ± 0.013
CCATATCCAA | 1.06 ± 0.055
AGAGTGGAGG | 1 ± 0.041
TTGTTTTGTT | 1.04 ± 0.1

Sequence | switch fluorescence ratio
TGATCTGCAG | 1.016 ± 0.0077
ATTTTTTTCC | 1.38 ± 0.57
ATTCGATTTT | 0.999 ± 0.019
TAATCTAGAA | 1.019 ± 0.0017
CTGTAAGGGG | 0.977 ± 0.022
GGTCCCATCG | 0.985 ± 0.019
GTTCCGGTCG | 1.07 ± 0.098
AATAAAAGAG | 0.962 ± 0.018
CAACCGCCTT | 1.46 ± 0.12
GAGTCCATGG | 0.985 ± 0.013
TTACAAATTT | 0.9647 ± 0.0066
GGACGTGGGA | 0.9944 ± 0.0036
GATATTGAGT | 0.9648 ± 0.0073
ATTATATTTA | 1.02 ± 0.028
AAAATGTAAG | 1.011 ± 0.0057
ACTTATAATA | 1.04 ± 0.038
ATAAGACTGT | 1.03 ± 0.018
GGGGGGGACT | 1 ± 0.034
GACGTTTAAT | 1.021 ± 0.0057
ACACGTTACA | 1.62 ± 0.082
CCTTGCCGGT | 1.022 ± 0.0094
GCGAAACAGG | 1.11 ± 0.06

Sequence | switch fluorescence ratio
GAGGGAGTAT | 0.9959 ± 0.0027
GGATTGAGTT | 0.999 ± 0.035
ATTGTTGGGG | 0.967 ± 0.025
ATGCAGGTAT | 1.01 ± 0.049
CGTTTTGTTG | 0.998 ± 0.014
CGGTTTTTAC | 1.08 ± 0.041
ATTTGTTTTC | 0.953 ± 0.013
CAAATTTGTC | 0.994 ± 0.02
ATCACTCGTA | 1.03 ± 0.043
TTAGATCAGC | 0.99 ± 0.03
ATCAATGGCA | 0.975 ± 0.035
AATGGTTGGG | 0.9989 ± 0.0078
TGCATGGTGG | 0.995 ± 0.01
TTGGTCGTAC | 1.03 ± 0.015
GTGGGGCAGT | 0.996 ± 0.025
AAAGGCATTC | 1.05 ± 0.025
ATTGCGTGGT | 0.986 ± 0.024
TTAGGAGGTG | 1.08 ± 0.018
CGTGGTGTTG | 0.991 ± 0.015
